Measurements as given in patent US20150197564A1 (Regeneron, published 2015).

Experiments:
hANGPTL3(17-460)-His [1] = target: T1, hANGPTL3(17-460)-His (human, UniProt Q9Y5C1 17-460); experiment: SPR Biacore, antigen captured, 37C, pH 7.2, PBSP
T1 construct: Bought protein (R&D Systems); also called full-length mature human ANGPTL3 with a C-terminal decahistidine tag; Human ANGPTL3 (17-460)-His
T1 sequence: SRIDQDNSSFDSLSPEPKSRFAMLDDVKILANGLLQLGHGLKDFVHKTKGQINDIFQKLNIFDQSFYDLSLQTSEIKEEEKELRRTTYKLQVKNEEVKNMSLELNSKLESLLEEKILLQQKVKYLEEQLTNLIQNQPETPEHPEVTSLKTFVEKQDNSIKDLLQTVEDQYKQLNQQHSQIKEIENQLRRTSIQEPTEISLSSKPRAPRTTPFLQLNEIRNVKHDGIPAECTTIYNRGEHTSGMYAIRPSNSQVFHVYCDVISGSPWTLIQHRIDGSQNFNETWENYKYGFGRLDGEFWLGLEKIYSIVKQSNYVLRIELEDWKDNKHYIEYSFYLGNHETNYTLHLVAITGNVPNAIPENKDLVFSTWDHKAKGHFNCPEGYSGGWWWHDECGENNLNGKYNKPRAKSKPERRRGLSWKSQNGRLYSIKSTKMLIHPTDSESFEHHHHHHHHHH
Experimental: (§1) All kinetic binding experiments were performed at 25° C. or 37° C. on a BIACORE™ T200 label-free molecular interaction instrument (GE Healthcare) using a CM5 sensor chip. Briefly, an antigen capture surface was generated by covalently coupling either an anti-mouse IgG-specific antibody (anti-mFc; GE Healthcare; catalog #BR-1008-38) or an anti-pentahistidine-specific antibody (Qiagen; catalog #34660) to the surface of a CM5 sensor chip using a standard amine coupling method.

MfANGPTL3(17-170)-mmH [2] = target: T2, MfANGPTL3(17-170)-mmH (Macaca fascicularis); experiment: SPR Biacore, antigen captured, 37C, pH 7.2, PBSP
T2 construct: also called N-terminal coiled-coil domain of ANGPTL3 from Macaca fascicularis with myc-myc-hexahistidine tag; Monkey ANGPTL3 (17-170)-mmH
T2 chain: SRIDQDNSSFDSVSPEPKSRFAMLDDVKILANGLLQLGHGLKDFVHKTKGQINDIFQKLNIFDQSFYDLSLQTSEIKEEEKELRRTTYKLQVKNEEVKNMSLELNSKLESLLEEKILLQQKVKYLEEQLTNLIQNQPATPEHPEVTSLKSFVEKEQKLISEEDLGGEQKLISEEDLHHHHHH
Experimental: as §1

hANGPTL3(17-170)-His [3] = target: T3, hANGPTL3(17-170)-His (human, UniProt Q9Y5C1 17-170); experiment: SPR Biacore, antigen captured, 37C, pH 7.2, PBSP
T3 construct: also called N-terminal coiled-coil domain of hANGPTL3 with a C-terminal hexahistidine tag; Human ANGPTL3 (17-170)-His
T3 sequence: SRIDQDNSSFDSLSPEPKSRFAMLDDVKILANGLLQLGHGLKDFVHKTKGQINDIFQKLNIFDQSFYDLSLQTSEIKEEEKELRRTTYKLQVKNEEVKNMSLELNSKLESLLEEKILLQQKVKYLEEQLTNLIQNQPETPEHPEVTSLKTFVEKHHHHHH
Experimental: as §1

[4] = target: T4, N-terminal biotin tagged Peptide 3 (human, N-terminal biotin tag); experiment: OCTET RED label-free biosensor; biotinylated peptide on streptavidin-coated tips dipped into 1 uM antibody, binding monitored for 2.5 minutes
T4 construct: Immobilised on streptavidin biosensor tips; also called ANGPTL3 peptide
T4 peptide: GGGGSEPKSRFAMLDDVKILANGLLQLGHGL
Experimental: (§2) To assess the binding of the anti-ANGPTL3 antibody H4H1276S to peptides derived from the N-terminal coiled-coil region of ANGPTL3, a label-free biosensor binding assay was performed using OCTET® RED system (ForteDo, Inc.). […] The peptide-coated biosensor tips were then dipped into wells containing 1 μM of either anti-ANGPTL3 antibody H4H1276S or an isotype-matched negative control antibody, and binding was monitored for 2.5 minutes. It was observed that H4H1276S binds to the ANGPTL3 linear sequence defined by Peptide 2 but not the overlapping but distinct sequence defined by Peptide 3 (see also FIG. 1). The isotype control antibody also served as a positive control for loading of Peptide 1 (i.e., hANGPTL4 peptide) onto the biosensor, because this isotype control antibody specifically recognizes hANGPTL4.

[5] = target: T5, C-terminal biotin tagged Peptide 3 (human, C-terminal biotin tag); experiment: as above
T5 construct: Immobilised on streptavidin biosensor tips; also called ANGPTL3 peptide
T5 peptide: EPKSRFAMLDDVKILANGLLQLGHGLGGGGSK
Experimental: as §2

[6] = target: T6, C-terminal biotin tagged Peptide 2 (human, C-terminal biotin tag); experiment: as above
T6 construct: Immobilised on streptavidin biosensor tips; also called ANGPTL3 peptide
T6 peptide: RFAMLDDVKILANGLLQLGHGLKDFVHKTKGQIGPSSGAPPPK
Experimental: as §2

[7] = target: T7, N-terminal biotin tagged Peptide 2 (human, N-terminal biotin tag); experiment: as above
T7 construct: Immobilised on streptavidin biosensor tips; also called ANGPTL3 peptide
T7 peptide: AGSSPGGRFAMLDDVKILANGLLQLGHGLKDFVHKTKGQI
Experimental: as §2

hANGPTL3(17-460)-His [8] = target: T1, hANGPTL3(17-460)-His; experiment: SPR Biacore, antigen captured, 37C, pH 5.75, PBSP
Experimental: as §1

MfANGPTL3(17-170)-mmH [9] = target: T2, MfANGPTL3(17-170)-mmH; experiment: SPR Biacore, antigen captured, 37C, pH 5.75, PBSP
Experimental: as §1

hANGPTL3(17-170)-His [10] = target: T3, hANGPTL3(17-170)-His; experiment: SPR Biacore, antigen captured, 37C, pH 5.75, PBSP
Experimental: as §1

Kd (hANGPTL3(17-460)-His [1]): 1.76 nM | koff (hANGPTL3(17-460)-His [1]): 0.00118 s⁻¹ | kon (hANGPTL3(17-460)-His [1]): 667000 M⁻¹ s⁻¹ | t1/2 (hANGPTL3(17-460)-His [1]): 9.8 min | Kd (MfANGPTL3(17-170)-mmH [2]): 0.7 nM | koff (MfANGPTL3(17-170)-mmH [2]): 0.00136 s⁻¹ | kon (MfANGPTL3(17-170)-mmH [2]): 1.94e+06 M⁻¹ s⁻¹ | t1/2 (MfANGPTL3(17-170)-mmH [2]): 8.5 min | Kd (hANGPTL3(17-170)-His [3]): 1.74 nM | koff (hANGPTL3(17-170)-His [3]): 0.00273 s⁻¹ | kon (hANGPTL3(17-170)-His [3]): 1.57e+06 M⁻¹ s⁻¹ | t1/2 (hANGPTL3(17-170)-His [3]): 4.2 min | binding result [4]: no binding (tested: 1 uM) | binding result [5]: no binding (tested: 1 uM) | binding result [6]: binds | binding result [7]: binds | Kd (hANGPTL3(17-460)-His [8]): 227 nM | koff (hANGPTL3(17-460)-His [8]): 0.0107 s⁻¹ | kon (hANGPTL3(17-460)-His [8]): 47100 M⁻¹ s⁻¹ | t1/2 (hANGPTL3(17-460)-His [8]): 1.1 min | Kd (MfANGPTL3(17-170)-mmH [9]): 18.8 nM | koff (MfANGPTL3(17-170)-mmH [9]): 0.00521 s⁻¹ | kon (MfANGPTL3(17-170)-mmH [9]): 278000 M⁻¹ s⁻¹ | t1/2 (MfANGPTL3(17-170)-mmH [9]): 2.2 min | Kd (hANGPTL3(17-170)-His [10]): 26.7 nM | koff (hANGPTL3(17-170)-His [10]): 0.0324 s⁻¹ | kon (hANGPTL3(17-170)-His [10]): 1.22e+06 M⁻¹ s⁻¹ | t1/2 (hANGPTL3(17-170)-His [10]): 0.4 min
B1: H4H1276S (antibody, IgG4, V domains shown)
VH: EVQLVESGGGVIQPGGSLRLSCAASGFTFDDYAMNWVRQGPGKGLEWVSAISGDGGSTYYADSVKGRFTISRDNSKNSLYLQMNSLRAEDTAFFYCAKDLRNTIFGVVIPDAFDIWGQGTMVTVSS
VL: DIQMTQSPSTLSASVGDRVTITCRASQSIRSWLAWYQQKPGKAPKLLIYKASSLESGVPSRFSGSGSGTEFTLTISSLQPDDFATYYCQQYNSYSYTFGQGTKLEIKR
